Consider nine compounds from patent US20220024992A1, “COMPOSITIONS AND METHODS COMPRISING LYSOCINS AS BIOENGINEERED ANTIMICROBIALS FOR USE IN TARGETING GRAM-NEGATIVE BACTERIA” (The Rockefeller University, priority 2018, published 2022).

Assay [1] has as its system pseudomonal PG (autoclaved P. aeruginosa). Description: Muralytic plate lysis assay on autoclaved Pseudomonas. The settings on record: 25 pmol spotted. It counts as biochemical.
For assay [2], the system named is P. aeruginosa strains. Description: MIC and MBC, modified CLSI broth microdilution, CAA medium. It counts as cell-based. The settings on record: strain 453, FpvA type I. The method, then:
The MIC and MBC values were calculated using a modified version of the broth microdilution assay as previously described by the Clinical and Laboratory Standards Institute (CLSI) (45). The specific modifications were to the bacterial concentration and growth medium used. […] CAA medium was used for Gram-negative bacteria to simulate low iron conditions. Alternatively, MHB was used for Gram-positive bacteria due to their inability to grow in CAA medium. Bacterial growth was assessed by measuring the OD600 nm using a SpectraMax M5 microplate reader (Molecular Devices). The MIC was defined as the lowest antimicrobial concentration that inhibits bacterial growth. To determine the MBC, the contents from each well originating from the MIC microtiter plate was plated on CAA agar to quantitate bacterial viability. The MBC was defined as the lowest antimicrobial concentration required to kill ≥99.9% of the initial bacterial inoculum. Growth and sterility controls were included.
In general terms: In broth dilution the organism is exposed to a series of concentrations in liquid medium.

Assay [3] deals with P. aeruginosa strains. Description: MIC, CLSI broth microdilution in CAA medium with EDDHA.
Method: The FpvA receptor type for all P. aeruginosa strains used was determined using multiplex PCR, as previously described (67). […] CAA medium consisting of 0.5 mg/ml EDDHA was used instead of MHB. All P. aeruginosa strains were initially inoculated in CAA medium and grown overnight at 37° C. with aeration. The bacteria were then pelleted, washed and resuspended in CAA medium with EDDHA. Using a 96-well U-bottom microtiter plate, P. aeruginosa at a final concentration of 5×10^5 CFU/ml were incubated statically at 37° C. with 0.002-256 μg/ml lysocin in CAA medium with EDDHA for a total of 48 h. Growth (bacteria incubated in growth medium absent lysocin) and sterility controls (growth medium only) were included for each dataset. At the culmination of the experiment, each plate was visually inspected for bacterial growth. All samples were assayed in triplicate. The MIC was defined as the lowest concentration of lysocin that inhibited observable bacterial growth.
Assay [4] deals with P. aeruginosa strain 453. Description: Cell viability assays with 0.5 μM antimicrobial.
Method: P. aeruginosa strain 453 were grown under iron-depleted conditions (see Bacterial Strains and Growth Conditions). The bacteria were harvested, washed and resuspended in fresh CAA medium with 0.5 mg/ml EDDHA. Using a 96-well flat-bottomed microtiter plate, the bacteria at ˜10^6 CFU/ml were incubated statically at 37° C. with either growth medium only (untreated control) or 0.5 μM purified antimicrobial. A 2 h incubation was used for the single time point experiments, whereas a 4 or 6 h incubation was used for the multiple time point assays. At various time points, an aliquot was removed from each sample, serially diluted and plated on CAA agar. After incubating the agar plates for up to 48 h at 37° C., colonies were counted in order to quantitate the CFU/ml concentration of surviving bacterial cells. Modifications were introduced to the aforementioned cell viability assay protocol for the experiment using P. aeruginosa grown in the presence of varying free iron concentrations. First, P. aeruginosa strain 453 were grown using iron-depleted or iron-rich conditions (CAA medium supplemented with 100 μM FeSO4) at 37° C. with aeration for a total of 16-18 h and subsequently assayed for lysocin sensitivity in PBS, pH 7.4. For the experiment analyzing lysocin activity in the presence of lung surfactant or serum, P. aeruginosa were incubated with or without lysocin in beractant ([sequence]; Abbvie) or HuS diluted 1:1 with 20 mM sodium phosphate, pH 7.0.
Assay [5] addresses FpvAII receptor (Pseudomonas aeruginosa). Description: cell-based or functional assay.
Assay [6] concerns the target FpvAIII receptor (Pseudomonas aeruginosa). The experiment in a line: cell-based or functional assay.
In assay [7] the target is ferripyoverdine A type I (FpvAI) receptor (Pseudomonas aeruginosa) (UniProt P48632). The experiment in a line: cell-based or functional assay.
Setting [8] is: Pseudomonas aeruginosa, read-out: MBC.
The mark [9] stands for this setting: Pseudomonas aeruginosa, read-out: MIC.

Converted amounts (≈) assume the structure as drawn. Like-named read-outs stand apart in the source and are kept apart here.

In the case of “CEWL: Chicken egg white lysozyme, positive control for muralytic activity [reference compound]”, the “muralytic activity (clearing zones) on autoclaved P. aeruginosa” value in assay [1] was “Clearing zones”.

For the compound `NC[C@H]1O[C@H](O[C@H]2[C@H](O)[C@@H](O[C@H]3O[C@H](CO)[C@@H](O)[C@H](N)[C@H]3O)[C@H](N)C[C@@H]2N)[C@H](N)C[C@@H]1O` [Tobramycin, tobramycin, reference compound], in assay [2] (setting [8]), the MBC (in general, the lowest tested concentration that kills the bacteria rather than only halting them) turned out to be 0.25 µg/mL (≈ 0.535 µM). The MIC (commonly the smallest concentration in the dilution series that meets the test's criterion for growth inhibition) in assay [2] (setting [9]) is 0.125 µg/mL (≈ 0.267 µM).

Take “PyS2-I-PlyPa03: PyS2 aa 1-209, GSx3 linker, P. aeruginosa lysin PlyPa03 (aa 2-144)”: the activity towards strains result in assay [3] (P. aeruginosa strains expressing FpvAII and FpvAIII) was “ineffective”. The MIC is over 256 µg/mL in assay [3] (strain 443, FpvAIII); over 256 µg/mL in assay [3] (strain 445, FpvAII); 4 µg/mL in assay [3] (strain 447, FpvAI); over 256 µg/mL in assay [3] (strain 448, FpvAII); over 256 µg/mL in assay [3] (strain 450, FpvAIII); over 256 µg/mL in assay [3] (strain 451, FpvAII). Moreover, the MIC is 0.25 µg/mL in assay [3] (strain 453, FpvAI); 2 µg/mL in assay [3] (strain AR465, FpvAI); over 256 µg/mL in assay [3] (strain AR468, FpvAII); 4 µg/mL in assay [3] (strain AR469, FpvAI); 8 µg/mL in assay [3] (strain AR470, FpvAI); over 256 µg/mL in assay [3] (strain AR471, FpvAIII). Moreover, the minimum inhibitory concentration (MIC) in assay [3] (strain AR474, FpvAI) was 4 µg/mL; in assay [3] (strain PAO1, FpvAI), 4 µg/mL. Moreover, the “decrease in viability of Pseudomonas” value in assay [4] (1 h, iron-chelated CAA medium) worked out at 3.6 log10. Moreover, in assay [4] (2 h, 50% HuS), the “killing of Pseudomonas” value worked out at 4.5 log10. The “killing of P. aeruginosa” value in assay [4] (2 h, 50% beractant (SURVANTA)) was found to be 3.6 log10; in assay [4] (4 h, iron-chelated CAA medium), 6.2 log10. Moreover, in assay [1], the “muralytic activity (clearing zones) on autoclaved P. aeruginosa” value is on record as “degraded pseudomonal PG”.

Consider PyS2-I-GN4 lysocin, for which, in assay [5], the MIC, P. aeruginosa strain 445 (FpvAII) was over 256 µg/mL; the MIC, P. aeruginosa strain 448 (FpvAII) was over 256 µg/mL; the MIC, P. aeruginosa strain 451 (FpvAII) was over 256 µg/mL; the MIC, P. aeruginosa strain AR468 (FpvAII) is over 256 µg/mL. For the same compound, in assay [6], the MIC, P. aeruginosa strain 443 (FpvAIII) is over 256 µg/mL; the MIC, P. aeruginosa strain 450 (FpvAIII) is over 256 µg/mL; the MIC, P. aeruginosa strain AR471 (FpvAIII) is over 256 µg/mL. In assay [7], this compound gave an MIC, P. aeruginosa strain 447 (FpvAI) of 4 µg/mL; an MIC, P. aeruginosa strain 453 (FpvAI) of 0.25 µg/mL; an MIC, P. aeruginosa strain AR465 (FpvAI) of 4 µg/mL; an MIC, P. aeruginosa strain AR469 (FpvAI) of 8 µg/mL. In assay [7], the MIC, P. aeruginosa strain AR470 (FpvAI) came out at 8 µg/mL; the MIC, P. aeruginosa strain AR474 (FpvAI) worked out at 4 µg/mL; the MIC, P. aeruginosa strain PAO1 (FpvAI) was found to be 4 µg/mL.

In assay [5], PyS2-I-PlyPa03 lysocin showed an MIC, P. aeruginosa strain 445 (FpvAII) of over 256 µg/mL; an MIC, P. aeruginosa strain 448 (FpvAII) of over 256 µg/mL; an MIC, P. aeruginosa strain 451 (FpvAII) of over 256 µg/mL; an MIC, P. aeruginosa strain AR468 (FpvAII) of over 256 µg/mL. In assay [6], the MIC, P. aeruginosa strain 443 (FpvAIII) was over 256 µg/mL; the MIC, P. aeruginosa strain 450 (FpvAIII) was over 256 µg/mL; the MIC, P. aeruginosa strain AR471 (FpvAIII) was over 256 µg/mL. In assay [7], this compound had an MIC, P. aeruginosa strain 447 (FpvAI) of 4 µg/mL; an MIC, P. aeruginosa strain 453 (FpvAI) of 0.25 µg/mL; an MIC, P. aeruginosa strain AR465 (FpvAI) of 2 µg/mL; an MIC, P. aeruginosa strain AR469 (FpvAI) of 4 µg/mL. In assay [7], the MIC, P. aeruginosa strain AR470 (FpvAI) is 8 µg/mL; the MIC, P. aeruginosa strain AR474 (FpvAI) stood at 4 µg/mL; the MIC, P. aeruginosa strain PAO1 (FpvAI) worked out at 4 µg/mL.

Turning to PyS2-I-GN3 lysocin, in assay [5], the MIC, P. aeruginosa strain 445 (FpvAII) is over 256 µg/mL; the MIC, P. aeruginosa strain 448 (FpvAII) is over 256 µg/mL; the MIC, P. aeruginosa strain 451 (FpvAII) was over 256 µg/mL; the MIC, P. aeruginosa strain AR468 (FpvAII) was over 256 µg/mL. In assay [6], this compound gave an MIC, P. aeruginosa strain 443 (FpvAIII) of over 256 µg/mL; an MIC, P. aeruginosa strain 450 (FpvAIII) of over 256 µg/mL; an MIC, P. aeruginosa strain AR471 (FpvAIII) of over 256 µg/mL. Besides, in assay [7], the MIC, P. aeruginosa strain 447 (FpvAI) was determined as 8 µg/mL; the MIC, P. aeruginosa strain 453 (FpvAI) amounted to 4 µg/mL; the MIC, P. aeruginosa strain AR465 (FpvAI) came to 4 µg/mL; the MIC, P. aeruginosa strain AR469 (FpvAI) worked out at 8 µg/mL. Besides, in assay [7], the MIC, P. aeruginosa strain AR470 (FpvAI) worked out at 4 µg/mL; the MIC, P. aeruginosa strain AR474 (FpvAI) turned out to be 4 µg/mL; the MIC, P. aeruginosa strain PAO1 (FpvAI) turned out to be 8 µg/mL.

In assay [2], colistin [reference compound] registered an MBC of 0.5 µg/mL and an MIC of 0.5 µg/mL.

For `C[C@@H](O)[C@H]1C(=O)N2C(C(=O)O)=C(S[C@@H]3CN[C@H](C(=O)N(C)C)C3)[C@H](C)[C@H]12` [Meropenem, meropenem, reference compound], the MBC in assay [2] (setting [8]) is 8 µg/mL (≈ 20.9 µM). The MIC in assay [2] (setting [9]) amounted to 8 µg/mL (≈ 20.9 µM).

In assay [5], PyS2-GN4 lysocin showed an MIC, P. aeruginosa strain 445 (FpvA type II) of over 256 µg/mL; an MIC, P. aeruginosa strain 446 (FpvA type II) of over 256 µg/mL; an MIC, P. aeruginosa strain 448 (FpvA type II) of over 256 µg/mL; an MIC, P. aeruginosa strain 449 (FpvA type II) of over 256 µg/mL. In assay [5], this compound displayed an MIC, P. aeruginosa strain 451 (FpvA type II) of over 256 µg/mL. In assay [6], this compound yielded an MIC, P. aeruginosa strain 443 (FpvA type III) of over 256 µg/mL and an MIC, P. aeruginosa strain 450 (FpvA type III) of over 256 µg/mL. Moreover, in assay [7], the MBC, P. aeruginosa strain 453 (FpvA type I) is 0.25 µg/mL; the MIC, P. aeruginosa strain 452 (FpvA type I) is 4 µg/mL; the MIC, P. aeruginosa strain 453 (FpvA type I) was 0.25 µg/mL; the MIC, P. aeruginosa strain MDR-M-3 (FpvA type I) is 2 µg/mL. Also, the MIC, P. aeruginosa strain PAO1 (FpvA type I) in assay [7] was 2 µg/mL.
